The results in this text go back to US20030044768A1 (Dana-Farber, published 2003).

The chains are these.
B4: B7-1 expressed on transfected COS cells (ligand)
chain: VIHVTKEVKEVATLSCGHNVSVEELAQTRIYWQKEKKMVLTMMSGDMNIWPEYKNRTIFDITNNLSIVILALRPSDEGTYECVVLKYEKDAFKREHLAEVTLSVKADFPTPSISDFEIPTSNIRRIICSTSGGFPEPHLSWLENGEELNAINTTVSQDPETELYAVSSKLDFNMTTNHSFMCLIKYGHLRVNQTFNWNTTKQEHFPDNLLPSWAITLISVNGIFVICCLTYCFAPRCRERRRNERLRRESVRPV
notes: whole, on cells; also called CD80

The target of experiment [1] is PD-1 on T cells (species not stated). The experiment in a line: cell-based or functional assay.
The target in experiment [2] is T1, human PD-1-Fc (human Ig gamma 1) (human, UniProt P01857 99-330 = IgG part).
T1 construct: domain: hinge-CH2-CH3; also called human PD-1 linked to IgG1
T1 sequence (P01857 other isoform, or with tags, fused parts or gaps limits assumed): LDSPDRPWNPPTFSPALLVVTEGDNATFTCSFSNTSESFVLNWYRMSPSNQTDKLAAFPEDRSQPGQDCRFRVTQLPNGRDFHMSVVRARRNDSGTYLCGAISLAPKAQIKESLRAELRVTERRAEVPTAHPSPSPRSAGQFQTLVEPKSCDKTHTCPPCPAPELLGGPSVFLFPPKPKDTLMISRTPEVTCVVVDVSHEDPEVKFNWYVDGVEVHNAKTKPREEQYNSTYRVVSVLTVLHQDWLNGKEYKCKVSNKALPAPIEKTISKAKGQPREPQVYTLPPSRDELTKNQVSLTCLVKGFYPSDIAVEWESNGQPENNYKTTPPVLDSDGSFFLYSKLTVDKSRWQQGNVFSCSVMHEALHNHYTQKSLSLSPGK
The experiment in a line: in situ staining of transfected COS cell monolayers. How it is done:
In addition, an in situ assay of transfected COS cell monolayers was performed. […] Binding was visualized with chromogenic substrates 5-bromo-4-chloro-3-indolyl phosphate and nitro blue tetrazolium and light microscopy.

Experiment [3] concerns the target T2, murine B7-4 expressed on transfected cells (murine, UniProt Q9EP73 19-290).
T2 construct: also called mouse B7-4; mB7-4
The experiment in a line: flow cytometry on CHO cells expressing murine B7-4. (In general: Flow cytometry measures light scatter and fluorescence of single cells or particles in a stream.)

The target of experiment [4] is T3, human B7-4M expressed on transfected COS or CHO cells (human, UniProt Q9NZQ7 19-290).
T3 construct: Full-length B7-4M cDNA expressed on COS or CHO cells; also called PD-L1
T3 sequence (Q9NZQ7 19-290): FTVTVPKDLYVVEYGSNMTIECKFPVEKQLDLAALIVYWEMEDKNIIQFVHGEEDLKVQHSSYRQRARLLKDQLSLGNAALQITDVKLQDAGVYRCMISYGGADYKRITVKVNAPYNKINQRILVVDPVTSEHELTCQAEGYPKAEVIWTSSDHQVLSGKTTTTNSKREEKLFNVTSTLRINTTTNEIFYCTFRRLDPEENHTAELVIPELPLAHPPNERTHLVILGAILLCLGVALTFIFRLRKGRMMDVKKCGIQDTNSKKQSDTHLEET
The experiment can be described thus: flow cytometry on CHO cells expressing human B7-4.

Experiment [5] has as its target T1, human PD-1-Fc (human Ig gamma 1). The experiment in a line: BIACORE, PD-1-Fc immobilized. In general terms: In SPR one partner is held on a chip, and binding of the other changes the refractive index at the surface.
Experiment [6] has the same target. The experiment can be described thus: flow cytometry on B7-1-transfected COS cells, anti-IgG-PE. The protocol:
COS cells were transfected with either B7-4M or B7-1 using LipofectAMINE transfection reagent. […] The cells were then analyzed by flow cytometry.

Experiment [7] addresses B4. The experiment in a line: flow cytometry (FITC) on B7-1-transfected COS cells.
For experiment [8], the target named is T3, human B7-4M expressed on transfected …. The experiment in a line: flow cytometry on B7-4M-transfected COS cells.
In experiment [9] the target is T4, human PD-1 fused to murine Ig gamma2a (human; murine, UniProt P01863 98-330 = IgG part, limits assumed).
T4 construct: domain: hinge-CH2-CH3; The Fc mutations are not specified; also called human PD-1 gamma 2a fusion protein; hPD-1-Ig
T4 sequence (P01863 other isoform, or with tags, fused parts or gaps limits assumed): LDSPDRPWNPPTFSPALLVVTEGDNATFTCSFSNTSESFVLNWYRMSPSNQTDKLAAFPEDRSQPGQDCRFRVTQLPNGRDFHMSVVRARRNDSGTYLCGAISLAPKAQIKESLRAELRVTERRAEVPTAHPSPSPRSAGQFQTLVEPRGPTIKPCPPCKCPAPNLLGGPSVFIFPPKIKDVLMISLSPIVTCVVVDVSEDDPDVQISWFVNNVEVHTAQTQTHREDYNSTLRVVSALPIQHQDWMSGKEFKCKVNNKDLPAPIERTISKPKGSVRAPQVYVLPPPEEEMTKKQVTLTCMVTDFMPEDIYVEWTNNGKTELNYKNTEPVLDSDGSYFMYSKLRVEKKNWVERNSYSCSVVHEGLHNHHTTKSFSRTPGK
The experiment in a line: flow cytometry on CHO-IA^d cells, hPD-1-Ig developed with goat anti-murine IgG2a-PE. How it is done:
In addition, cells were stained separately with 5 μg/ml anti-IA^d-PE or B7.2-PE (Pharmingen, San Diego, Calif.). Following each step, cells were washed three times with PBS/1% BSA/0.02% sodium azide. After the final incubation, cells were fixed with 1% paraformaldehyde. Ten thousand events were analyzed on a FACSCalibar (Becton Dickinson, Mountain View, Calif.). All isotype controls were obtained from Pharmingen.

T2 sequence (Q9EP73 19-290 limits assumed): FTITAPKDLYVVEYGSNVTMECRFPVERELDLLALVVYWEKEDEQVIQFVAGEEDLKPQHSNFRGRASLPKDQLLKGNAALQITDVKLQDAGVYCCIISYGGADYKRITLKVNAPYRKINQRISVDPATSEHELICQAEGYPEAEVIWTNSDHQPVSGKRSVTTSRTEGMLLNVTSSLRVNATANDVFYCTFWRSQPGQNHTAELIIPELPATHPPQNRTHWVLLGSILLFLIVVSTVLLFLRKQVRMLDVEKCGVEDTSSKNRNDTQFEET

In experiment [1], “B7-4.Fc / PDL1.Ig fusion protein (species not stated) (Fc fusion)” gave a % CD69+ T cells at 24 hours, anti-CD3/B7-4.Fc (anti-CD3 alone 26%) of 26%; a % CD69+ T cells at 48 hours, anti-CD3/B7-4.Fc (anti-CD3 alone 46%) of 36%; a % CD69+ T cells at 72 hours, anti-CD3/B7-4.Fc (anti-CD3 alone 63%) of 42%; a % IL-2R+ (CD25) T cells at 24 hours, anti-CD3/B7-4.Fc (anti-CD3 alone 17%) of 12%. In experiment [1], this molecule yielded a % IL-2R+ (CD25) T cells at 48 hours, anti-CD3/B7-4.Fc (anti-CD3 alone 29%) of 17%; a % IL-2R+ (CD25) T cells at 72 hours, anti-CD3/B7-4.Fc (anti-CD3 alone 54%) of 15%; a % apoptotic T cells (propidium iodide and annexin positive) at 24 hours, anti-CD3/B7-4.Fc (anti-CD3 alone 3%) of 3%; a % apoptotic T cells at 48 hours, anti-CD3/B7-4.Fc (anti-CD3 alone 5%) of 4%. Also, in [1], the % apoptotic T cells at 72 hours, anti-CD3/B7-4.Fc (anti-CD3 alone 10%) came to 12%.

B1: B7-2 expressed on transfected COS cells (ligand)
chain: APLKIQAYFNETADLPCQFANSQNQSLSELVVFWQDQENLVLNEVYLGKEKFDSVHSKYMGRTSFDSDSWTLRLHNLQIKDKGLYQCIIHHKKPTGMIRIHQMNSELSVLANFSQPEIVPISNITENVYINLTCSSIHGYPEPKKMSVLLRTKNSTIEYDGVMQKSQDNVTELYDVSISLSVSFPDVTSNMTIFCILETDKTRLLSSPFSIELEDPQPPPDHIPWITAVLPTVIICVMVFCLILWKWKKKKRPRNSYKCGTNTMEREESEQTKKREKIHIPERSDEAQRVFKSSKTSSCDKSDTCF
notes: whole, on cells; also called CD86
Consider B1, for which the binding result in experiment [2] is listed as “no binding”.

B2: murine PD-1-Fc (Fc fusion, UniProt Q02242 25-167, looked up)
chain: LEVPNGPWRSLTFYPAWLTVSEGANATFTCSLSNWSEDLMLNWNRLSPSNQTEKQAAFCNGLSQPVQDARFQIIQLPNRHDFHMNILDTRRNDSGIYLCGAISLHPKAKIEESPGAELVVTERILETSTRYPSPSPKPEGRFQ
notes: also called murine PD-1.Ig; mouse PD-1; not shown: Fc portion
As to B2, the binding result in [3] and in experiment [4] was “binds” in each case.

B3: soluble form of human B7-1 (ligand)
chain: VIHVTKEVKEVATLSCGHNVSVEELAQTRIYWQKEKKMVLTMMSGDMNIWPEYKNRTIFDITNNLSIVILALRPSDEGTYECVVLKYEKDAFKREHLAEVTLSVKADFPTPSISDFEIPTSNIRRIICSTSGGFPEPHLSWLENGEELNAINTTVSQDPETELYAVSSKLDFNMTTNHSFMCLIKYGHLRVNQTFNWNTTKQEHFPDN
notes: also called soluble B7-1
Consider B3, for which, in experiment [5], the binding result was “no binding”.

B4: the binding result in experiment [6] is listed as “no binding”.

B5: murine ICOS-his fusion protein (receptor, UniProt Q9WVS0 21-144, looked up)
chain: EINGSADHRMFSFHNGGVQISCKYPETVQQLKMRLFREREVLCELTKTKGSGNAVSIKNPMLCLYHLSNNSVSFFLNNPDSSQGSYYFCSLSIFDPPPFQERNLSGGYLHIYESQLCCQLKLWL
notes: not shown: his tag
Take B5: the binding result in [7] and in experiment [8] was “no binding” in each case.

B6: IA^d expressed on CHO transfectants (CHO-IA^d) (other)
alpha: EDDIEADHVGFYGTTVYQSPGDIGQYTHEFDGDELFYVDLDKKKTVWRLPEFGQLILFEPQGGLQNIAAEKHNLGILTKRSNFTPATNEAPQATVFPKSPVLLGQPNTLICFVDNIFPPVINITWLRNSKSVTDGVYETSFLVNRDHSFHKLSYLTFIPSDDDIYDCKVEHWGLEEPVLKHWEPEIPAPMSELTETVVCALGLSVGLVGIVVGTIFIIQGLRSGGTSRHPGPL
beta: GNSERHFVVQFKGECYYTNGTQRIRLVTRYIYNREEYVRYDSDVGEYRAVTELGRPDAEYWNSQPEILERTRAEVDTACRHNYEGPETSTSLRRLEQPNVAISLSRTEALNHHNTLVCSVTDFYPAKIKVRWFRNGQEETVGVSSTQLIRNGDWTFQVLVMLEMTPHQGEVYTCHVEHPSLKSPITVEWRAQSESARSKMLSGIGGCVLGVIFLGLGLFIRHRSQKGPRGPPPAGLLQ
notes: present on CHO-IA^d, CHO-IA^d/B7.2 and CHO-IA^d/B7.2/B7-4; copies: 1 + 1
With B6, in experiment [9], the binding result is “no binding (tested: 5 ug/ml)”.

B7: soluble form of human B7-2 (ligand)
chain: APLKIQAYFNETADLPCQFANSQNQSLSELVVFWQDQENLVLNEVYLGKEKFDSVHSKYMGRTSFDSDSWTLRLHNLQIKDKGLYQCIIHHKKPTGMIRIHQMNSELSVLANFSQPEIVPISNITENVYINLTCSSIHGYPEPKKMSVLLRTKNSTIEYDGVMQKSQDNVTELYDVSISLSVSFPDVTSNMTIFCILETDKTRLLSSPFSIELEDPQPPPDHIP
notes: also called soluble B7-2
As to B7, the binding result in [5] is “no binding”.
